Experimental data taken from publication PMC2756985 (Biochemistry, 2009).
Numbering of substitutions follows the chain as printed. Names may count otherwise. Like-named read-outs stand apart in the source and are kept apart here.

What was measured:
[1] = cited from earlier work
[2] = cited from earlier work; remark: listed apart in the source
[3] = cited from earlier work; remark: listed apart in the source
DevS kinase = conditions: cited from earlier work
[4] = Oxygen association rates of DevS proteins, laser flash photolysis; assay type: binding, Mycobacterium tuberculosis; conditions: pH 7.5 phosphate buffer (20 mM), 200 mM NaCl, 1 mM EDTA
[5] = Oxygen dissociation rates of DevS proteins, stopped flow; assay type: binding, Mycobacterium tuberculosis; conditions: read-out: O2 Kd; from koff and kon
[6] = Autooxidation of oxy-ferrous DevS proteins to the ferric; assay type: physicochemical, Mycobacterium tuberculosis; conditions: for autooxidation rate k / autooxidation t1/2: 25 °C
[7] = CO association and dissociation kinetics of DevS proteins, stopped flow; assay type: binding, Mycobacterium tuberculosis; conditions: 4 °C; for Kd: read-out: CO Kd, from koff and kon; for CO koff / CO kon: stopped flow; for CO koff: displacement with air saturated buffer or NO solutions; for CO kon: phosphate buffer (50 mM) pH 7.5, 200 mM NaCl, 1 mM EDTA
[8] = ferrous unligated form (5c complex)
[9] = ligand binding: O2 (oxy ferrous 6c species)
[10] = phosphate buffer (50 mM), pH 7.5, 1 mM EDTA and 200 mM NaCl
[11] = CaCl2 0.1 mM, hepes buffer (20 mM), pH 7.5, Chelex 100
[12] = CuCl2 10 µM, hepes buffer (20 mM), pH 7.5, Chelex 100
[13] = FeCl3 0.1 mM (nominal), hepes buffer (20 mM), pH 7.5, Chelex 100
[14] = KCl 200 mM, hepes buffer (20 mM), pH 7.5, pretreated with Chelex 100
[15] = MgCl2 1 mM, hepes buffer (20 mM), pH 7.5, Chelex 100
[16] = NaCl 200 mM, hepes buffer (20 mM), pH 7.5, Chelex 100

B1: BjFixL: FixL gas sensor kinase (literature comparator) (protein, UniProt P23222 1-505, looked up)
Sensor protein FixL: MAPTRVTHPPDDGRGEHFRVRIEGFGVGTWDLDLKTWALDWSDTARTLLGIGQDQPASYDLFLSRLEPDDRERVESAIKRVSERGGGFDVSFRVAGTSNAGQWIRARAGLIRDEAGTARHLSGIFLDIDEEKQVEGALRTRETHLRSILHTIPDAMIVIDGHGIIQLFSTAAERLFGWSELEAIGQNVNILMPEPDRSRHDSYISRYRTTSDPHIIGIGRIVTGKRRDGTTFPMHLSIGEMQSGGEPYFTGFVRDLTEHQQTQARLQELQSELVHVSRLSAMGEMASALAHELNQPLAAISNYMKGSRRLLAGSSDPNTPKVESALDRAAEQALRAGQIIRRLRDFVARGESEKRVESLSKLIEEAGALGLAGAREQNVQLRFSLDPGADLVLADRVQIQQVLVNLFRNALEAMAQSQRRELVVTNTPAADDMIEVEVSDTGSGFQDDVIPNLFQTFFTTKDTGMGVGLSISRSIIEAHGGRMWAESNASGGATFRFTLPAADEN
O2 koff [1]: 20 s⁻¹ | O2 kon [1]: 145000 M⁻¹ s⁻¹ | Kd ([1]; read-out: O2 Kd): 138 µM | autooxidation rate k ([2]; pH7, 37 °C): 2.8 h⁻¹ | autooxidation t1/2 ([2]; pH7, 37 °C): 0.25 h | CO koff [3]: 0.045 s⁻¹ | CO kon [3]: 5000 M⁻¹ s⁻¹ | Kd ([3]; read-out: CO Kd): 9 µM

B2: full-length Y171F DevS (protein, UniProt P9WGK3 1-578, looked up, variant Y171F)
chain: MTTGGLVDENDGAAMRPLRHTLSQLRLHELLVEVQDRVEQIVEGRDRLDGLVEAMLVVTAGLDLEATLRAIVHSATSLVDARYGAMEVHDRQHRVLHFVYEGIDEETVRRIGHLPKGLGVIGLLIEDPKPLRLDDVSAHPASIGFPPYHPPMRTFLGVPVRVRDESFGTLFLTDKTNGQPFSDDDEVLVQALAAAAGIAVANARLYQQAKARQSWIEATRDIATELLSGTEPATVFRLVAAEALKLTAADAALVAVPVDEDMPAADVGELLVIETVGSAVASIVGRTIPVAGAVLREVFVNGIPRRVDRVDLEGLDELADAGPALLLPLRARGTVAGVVVVLSQGGPGAFTDEQLEMMAAFADQAALAWQLATSQRRMRELDVLTDRDRIARDLHDHVIQRLFAIGLALQGAVPHERNPEVQQRLSDVVDDLQDVIQEIRTTIYDLHGASQGITRLRQRIDAAVAQFADSGLRTSVQFVGPLSVVDSALADQAEAVVREAVSNAVRHAKASTLTVRVKVDDDLCIEVTDNGRGLPDEFTGSGLTNLRQRAEQAGGEFTLASVPGASGTVLRWSAPLSQ
modifications: full-length
kinase activity (DevS kinase; [8]): active | kinase activity (DevS kinase; [9]): inactive | O2 kon [4]: 32.4 ^a µM^−1s^−1 | Kd [5]: 0.12 µM | autooxidation rate k [6, 10]: 0.012 h⁻¹ | Kd [7]: 3.33 µM | CO koff [7]: 2.43 ± 0.15 ^b s^−1 | CO kon [7]: 0.73 ± 0.071 ^b µM^−1s^−1

B3: DevS: full length wild-type heme sensor kinase DevS of Mycobacterium tuberculosis (protein, UniProt P9WGK3 1-578, looked up)
chain: B2 chain with F171Y
modifications: full-length
kinase activity (DevS kinase; [8]): active | kinase activity (DevS kinase; ferrous unligated form (5c complex), listed as wild-type DevS): intermediate kinase activity | kinase activity (DevS kinase; ligand binding: CO and NO): further activates the kinase | kinase activity (DevS kinase; [9]): inactive | kinase activity (DevS kinase; ligand binding: O2 (oxy ferrous 6c species), listed as wild-type DevS): completely inactivates it | autooxidation half life ([2]; 37 °C, full length DevS from a slow expressing vector): 4 h | O2 kon [4]: 11.8 ^a µM^−1s^−1 | Kd [5]: 0.58 µM | autooxidation half life ([6]; 0.1 mM Cu2+): less than 2 min | autooxidation rate k [6, 11]: 0.0049 h⁻¹ | autooxidation t1/2 [6, 11]: 170 h | decrease of autooxidation rate on tenfold decrease in Cu2+ concentration ([6]; Cu2+ from 100 to 10 µM): over 300 fold | autooxidation rate k [6, 12]: 0.062 h⁻¹ | autooxidation t1/2 [6, 12]: 11 h | autooxidation rate k ([6]; CuCl2 0.1 mM, hepes buffer (20 mM), pH 7.5, Chelex 100): 25 h⁻¹ | autooxidation rate k [6, 13]: 0.09 h⁻¹ | autooxidation t1/2 [6, 13]: 7.8 h | autooxidation rate k [6, 14]: 0.013 h⁻¹ | autooxidation t1/2 [6, 14]: 78 h | autooxidation rate k [6, 15]: 0.012 h⁻¹ | autooxidation t1/2 [6, 15]: 59 h | autooxidation rate k [6, 16]: 0.010 h⁻¹ | autooxidation t1/2 [6, 16]: 96 h | autooxidation rate k ([6]; hepes 20 mM, pH 7.5, pretreated with Chelex 100, no added cation): 0.0033 h⁻¹ | autooxidation half-lives ([6]; in the absence of Fe3+ and Cu2+): greater than one day | autooxidation rates ([6]; in the presence of K+, Na+, Mg2+, and Ca2+): 0.005 to 0.02 h⁻¹ | autooxidation rate k [6, 10]: 0.019 h⁻¹ | autooxidation t1/2 [6, 10]: > 30 h | autooxidation t1/2 ([6]; phosphate buffer (50 mM), pH 7.5, 1 mM EDTA and 200 mM NaCl, listed as Full length wild-type DevS): 73.6 h | Kd [7]: 8.29 µM | CO koff [7]: 2.57 ± 0.40 ^b s^−1 | CO kon [7]: 0.31 ± 0.031 ^b µM^−1s^−1

B4: Bovine Mb: bovine myoglobin (protein, UniProt P02192 2-154, looked up)
Myoglobin: GLSDGEWQLVLNAWGKVEADVAGHGQEVLIRLFTGHPETLEKFDKFKHLKTEAEMKASEDLKKHGNTVLTALGGILKKKGHHEAEVKHLAESHANKHKIPVKYLEFISDAIIHVLHAKHPSDFGADAQAAMSKALELFRNDMAAQYKVLGFHG
autooxidation t1/2 ([2]; pH 9, 25 °C): 63 h

B5: EcDos: Escherichia coli Dos, heme-regulated phosphodiesterase (protein, UniProt P76129 1-799, looked up)
Oxygen sensor protein DosP: MKLTDADNAADGIFFPALEQNMMGAVLINENDEVMFFNPAAEKLWGYKREEVIGNNIDMLIPRDLRPAHPEYIRHNREGGKARVEGMSRELQLEKKDGSKIWTRFALSKVSAEGKVYYLALVRDASVEMAQKEQTRQLIIAVDHLDRPVIVLDPERHIVQCNRAFTEMFGYCISEASGMQPDTLLNIPEFPADNRIRLQQLLWKTARDQDEFLLLTRTGEKIWIKASISPVYDVLAHLQNLVMTFSDITEERQIRQLEGNILAAMCSSPPFHEMGEIICRNIESVLNESHVSLFALRNGMPIHWASSSHGAEIQNAQSWSATIRQRDGAPAGILQIKTSSGAETSAFIERVADISQHMAALALEQEKSRQHIEQLIQFDPMTGLPNRNNLHNYLDDLVDKAVSPVVYLIGVDHIQDVIDSLGYAWADQALLEVVNRFREKLKPDQYLCRIEGTQFVLVSLENDVSNITQIADELRNVVSKPIMIDDKPFPLTLSIGISYDLGKNRDYLLSTAHNAMDYIRKNGGNGWQFFSPAMNEMVKERLVLGAALKEAISNNQLKLVYQPQIFAETGELYGIEALARWHDPLHGHVPPSRFIPLAEEIGEIENIGRWVIAEACRQLAEWRSQNIHIPALSVNLSALHFRSNQLPNQVSDAMHAWGIDGHQLTVEITESMMMEHDTEIFKRIQILRDMGVGLSVDDFGTGFSGLSRLVSLPVTEIKIDKSFVDRCLTEKRILALLEAITSIGQSLNLTVVAEGVETKEQFEMLRKIHCRVIQGYFFSRPLPAEEIPGWMSSVLPLKI
autooxidation rate k [2]: 0.7 h⁻¹ | autooxidation t1/2 [2]: 1 h
